We go through 1 molecule from patent US20100143379A1 (priority 2005, published 2010).

In one experiment the test system is ERK-1/2. The experiment can be described thus: MAP kinase phosphorylation in differentiating K562 progenitors (Western blot). The class given is cell-based, human. The settings on record: K562 in differentiation medium. On the procedure: MIF addition markedly affected these differentiation-associated, MAP kinase responses.
Western Blot Analysis. Immunoblotting with antibodies directed against phospho-ERK1/2, total ERK1/2, phospho-JNK1/2, total JNK1/2, phospho-p38, and total p38 was performed according to the manufacturer's instructions (New England Biolabs, Beverly, Mass.). The secondary antibody was an anti-rabbit IgG conjugated to horseradish peroxidase and detection was by chemiluminescence according to the manufacture's instructions (Amersham Pharmacia Biotech, Piscataway, N.J.). For quantitation of signal intensity of phospho-specific kinase results, western blots were scanned using a UMAX, PowerLook IIII scanner and the images were analyzed using UN-SCAN-IT gel Automated Digitizing system software version 5.1 (Silk Scientific Corporation, USA). The ratio between phosphorylated to the total MAP kinase was determined and expressed as a fold-change for each lane (mean±S.E.M for three blots from independent cell cultures). The p values were calculated for each of the time course comparisons (4, 16, 96 hrs) of three different experiments (Student T-test, two-tailed).
Background: In western blotting, separated proteins are transferred to a membrane and probed.

The subject of another experiment is HIV-1ADA. The experiment can be described thus: HIV-1 replication in monocyte-derived macrophage cultures (RT activity). The class given is cell-based. The settings on record: recombinant MIF 50 ng/ml. On the procedure:
Triplicate cultures of monocyte-derived macrophages were infected with HIV-1ADA in the presence of anti-MIF MAb (25 μg/ml) or isotype control. Virus replication was monitored by RT activity in culture supernatants. Results are presented as mean±SD. […] Control cultures were cultivated with PMB mixed with an isotype immunoglobulin with or without MIF.
To investigate this possibility, HIV-infected macrophages were cultured in the presence of a neutralizing anti-MIF antibody or isotype control. Triplicate cultures of monocyte-derived macrophages were infected with HIV-1ADA in the presence of anti-MIF MAb (25 μg/ml) or isotype control. Virus replication was monitored by RT activity in culture supernatants. […] Control cultures were cultivated with PMB mixed with an isotype immunoglobulin with or without MIF.

The next experiment concerns R5 (ADA) strain of HIV-1. The experiment can be described thus: HIV-1 replication in PHA-activated PBMC cultures (RT activity). The settings on record: 50 ng/ml; p<0.01. It counts as cell-based. How it is done:
(§1) At indicated time points after infection, reverse transcriptase activity was measured in culture supernatants. Results are mean±SD. Whereas differences between MIF-treated and control cultures of ADA-infected PBMCs are highly statistically significant (p<0.01), differences between MIF-treated and control cultures of LAI-infected cells are not significant (p>0.05).
(§2) At indicated time points after infection, reverse transcriptase activity was measured in culture supernatants. Whereas differences between MIF-treated and control cultures of ADA-infected PBMCs are highly statistically significant (p<0.01), differences between MIF-treated and control cultures of LAI-infected cells are not significant (p>0.05) (FIG. 8).

The next experiment relates to X4 (LAI) strain of HIV-1. Described as above. The settings on record: 50 ng/ml; p>0.05. The class given is cell-based. How it is done: as §1, §2
The test system of the next experiment is CCR5. The experiment can be described thus: Cell surface receptor expression in monocyte-derived macrophages (FACS). The class given is cell-based. Conditions: 50 ng/ml with PMB 10 μg/ml, 48 h. On the procedure:
(§3) Cell surface expression of CCR5 and CXCR4 was analyzed by FACS after staining with FITC-conjugated anti-CCR5 and PE-conjugated anti-CXCR4 antibodies (Pharmingen). Results (percent of receptor-positive cells) are shown as mean±SE for three performed experiments.
(§4) Cell surface expression of CCR5 and CXCR4 was analyzed by FACS after staining with FITC-conjugated anti-CCR5 and PE-conjugated anti-CXCR4 antibodies (Pharmingen) (FIG. 9).

The subject of another experiment is CXCR4. The experiment is described as above. The class given is cell-based. Conditions: 50 ng/ml with PMB 10 μg/ml, 48 h. How it is done: as §3, §4
Another experiment has as its system CD74. The experiment can be described thus: CD74 phospho-serine sandwich ELISA. It counts as cell-based. The settings on record: MIF 100 ng/ml, 10 mins; COS-7/CD74+CD44 cell line and wild-type MEFs. How it is done: (§5) FIGS. 12A-12E show the phosphoserine content of CD74 and CD44 measured by ELISA. […] The ELISA values represent the mean±SD of triplicate measurements. Experiments were replicated twice. *P<0.02 versus corresponding control (Student's T test, two-tailed). […] Cell lysates were prepared and probed for PKA and PKC using phospho-specific, and total anti-PKA and anti-PKC antibodies.
The observation that the phosphoserine content of CD74 increased only in cells that expressed CD74 and full-length CD44 is consistent with the notion that the MIF-mediated phosphorylation of CD74 is dependent on the activity of the CD44 intracytoplasmic domain.
The serine phosphorylation of CD74 and CD44 was quantified by specific sandwich ELISA (Perez et al. (2003). Nature Immunol 4:1083-92). […] After several washes (0.5% Tween-20 in PBS), 0.2 μg/ml anti-phospho-serine antibody (Hypromatrix) conjugated with horseradish peroxidase was added, and immunoreactivity measured by the TMB reagent (DakoCytomation) and the data analyzed with SpectraMax Plus (Molecular Devices).
(§6) Cell lysates were collected and analyzed by immunoblots using a pair of anti-phospho-PICA and anti-(total)-PKA antibodies, a pair of anti-phospho-PKC (all from Cell Signaling) and anti-(total)-PKC (Santa Cruz) antibodies, or a pair of anti-phospho-p56^lck (Cell Signaling) and anti-(total) p56^lck (sc-433, Santa Cruz) antibodies.

For a further experiment, the system named is CD44. The experiment can be described thus: CD44 phospho-serine sandwich ELISA. Conditions: MIF 100 ng/ml, 10 mins. It counts as cell-based. On the procedure:
as §5
Ser325 is constitutively phosphorylated in resting cells, but undergoes de-phosphorylation in response to PKC activating stimuli such as phorbol esters. […] The effect of MIF-stimulation CD44 phosphorylation was analyzed in the COS-7 and MEF cell lines by sandwich ELISA using an anti-CD44 capture antibody to quantify CD44 phospho-serine residues (Perez et al. (2003). Nature Immunol. 4:1083-92). […]
The serine phosphorylation of CD74 and CD44 was quantified by specific sandwich ELISA (Perez et al. (2003). Nature Immunol 4:1083-92). […] After several washes (0.5% Tween-20 in PBS), 0.2 μg/ml anti-phospho-serine antibody (Hypromatrix) conjugated with horseradish peroxidase was added, and immunoreactivity measured by the TMB reagent (DakoCytomation) and the data analyzed with SpectraMax Plus (Molecular Devices). […]
For orientation: ELISA stands for enzyme-linked immunosorbent assay.

Another experiment has as its system PKA. Nature of the experiment: Western analysis of kinase phosphorylation in COS-7/CD74+CD44 cells. It counts as cell-based. Conditions: 100 ng/ml for 10 minutes. How it is done: as §5, §6

B1: MIF: macrophage migration inhibitory factor; recombinant mouse or human MIF purified essentially free of endotoxin (protein)
chain: PMFIVNTNVPRASVPDGFLSELTQQLAQATGKPPQYIAVHVVPDQLMAFGGSSEPCALCSLHSIGKIGGAQNRSYSKLLCGLLAERLRISPDRVYINYYDMNAANVGWNNSTFA
In the case of B1, the “duration of ERK-1/2 phosphorylation” value in the experiment with ERK-1/2 was “at least 96 hrs”. In the experiment on ERK-1/2 (16 hrs), the ERK-1/2 phosphorylation entry is “phosphorylation was high at 16 hrs”. For the same molecule, the “HIV-1 replication (RT activity)” value with HIV-1ADA was “significantly suppressed replication”. The “R5 HIV-1 replication (RT activity)” value in the experiment with R5 (ADA) strain of HIV-1 was “reduced R5 HIV-1 replication”. In the experiment with X4 (LAI) strain of HIV-1, the “X4 HIV-1 replication (RT activity)” value is on record as “did not reduce replication”. Moreover, the CCR5 expression result in the experiment on CCR5 is listed as “substantially reduces CCR5 expression”. Moreover, the CXCR4 expression result in the experiment with CXCR4 was “without altering expression of CXCR4”. Further, the “phosphorylation of CD74 (phospho-serine content)” value in the experiment with CD74 is “increased significantly”. For the same molecule, in the experiment with CD44, the “net content of CD44 serine phosphorylation” value is listed as “did not change”. For the same molecule, the “phosphorylation of PKA” value in the experiment with PKA is recorded as “MIF-dependent phosphorylation of PKA”.
